In patent publication US20230235013A1 (MABSOLVE, published 2023):
Where a chain is given by its changes, count along the chain named. In names and notes the source's numbering stands.

T1: mouse FcRn (Sino Biological Cat. No. CT029-M08H) (mouse, UniProt Q61559 22-297; P01887 21-119)
T1 construct: Bought protein, captured on an anti-histidine chip
T1 sequence (looked up): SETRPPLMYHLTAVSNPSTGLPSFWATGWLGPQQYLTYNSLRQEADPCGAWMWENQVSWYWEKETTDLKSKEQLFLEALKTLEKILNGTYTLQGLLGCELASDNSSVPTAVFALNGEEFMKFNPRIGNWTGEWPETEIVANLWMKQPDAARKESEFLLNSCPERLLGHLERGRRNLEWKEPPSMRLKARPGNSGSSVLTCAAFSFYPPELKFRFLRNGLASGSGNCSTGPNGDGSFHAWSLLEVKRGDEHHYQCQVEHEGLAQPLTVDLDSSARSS
T1 sequence (b2m, looked up): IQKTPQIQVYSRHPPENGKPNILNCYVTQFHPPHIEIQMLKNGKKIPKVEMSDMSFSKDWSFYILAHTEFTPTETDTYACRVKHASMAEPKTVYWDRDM

B1: anti-CD20 (rituximab) human IgG1 L234A/L235A/P329G (LALAPG reference) (antibody)
heavy: not shown
light: QIVLSQSPAILSASPGEKVTMTCRASSSVSYIHWFQQKPGSSPKPWIYATSNLASGVPVRFSGSGSGTSYSLTISRVEAEDAATYYCQQWTSNPPTFGGGTKLEIKRTVAAPSVFIFPPSDEQLKSGTASVVCLLNNFYPREAKVQWKVDNALQSGNSQESVTEQDSKDSTYSLSSTLTLSKADYEKHKVYACEVTHQGLSSPVTKSFNRGEC
notes: EU numbering; also called 2-66; copies: 2 + 2
B2: anti-CD20 (rituximab) human IgG1 L234S/L235G/G236R (antibody)
heavy: QVQLQQPGAELVKPGASVKMSCKASGYTFTSYNMHWVKQTPGRGLEWIGAIYPGNGDTSYNQKFKGKATLTADKSSSTAYMQLSSLTSEDSAVYYCARSTYYGGDWYFNVWGAGTTVTVSSASTKGPSVFPLAPSSKSTSGGTAALGCLVKDYFPEPVTVSWNSGALTSGVHTFPAVLQSSGLYSLSSVVTVPSSSLGTQTYICNVNHKPSNTKVDKKVEPKSCDKTHTCPPCPAPESGRGPSVFLFPPKPKDTLMISRTPEVTCVVVDVSHEDPEVKFNWYVDGVEVHNAKTKPREEQYNSTYRVVSVLTVLHQDWLNGKEYKCKVSNKALPAPIEKTISKAKGQPREPQVYTLPPSRDELTKNQVSLTCLVKGFYPSDIAVEWESNGQPENNYKTTPPVLDSDGSFFLYSKLTVDKSRWQQGNVFSCSVMHEALHNHYTQKSLSLSPGK
light: B1 light
notes: EU numbering; also called 2-47; 1-140; copies: 2 + 2
B3: anti-CD20 (rituximab) human IgG1 L234T/L235S/G236R (antibody)
heavy: B2 heavy with S238T, G239S
light: B1 light
notes: EU numbering; also called 2-62; copies: 2 + 2
B4: anti-CD20 (rituximab) human IgG1 L234T/L235Q/G236R (antibody)
heavy: B2 heavy with S238T, G239Q
light: B1 light
notes: EU numbering; also called 2-60; copies: 2 + 2
B5: anti-CD20 (rituximab) human IgG1 L234S/L235T/G236R (antibody)
heavy: B2 heavy with G239T
light: B1 light
notes: EU numbering; also called 2-52; 1-150; copies: 2 + 2
B6: anti-CD20 (rituximab) human IgG1 L234S/L235V/G236R (antibody)
heavy: B2 heavy with G239V
light: B1 light
notes: EU numbering; also called 2-53; copies: 2 + 2
B7: anti-CD20 (rituximab) human IgG1 L234G/L235S/G236R (antibody)
heavy: B2 heavy with S238G, G239S
light: B1 light
notes: EU numbering; also called 2-19; 1-59; copies: 2 + 2
B8: anti-CD20 (rituximab) human IgG1 L234Q/L235S/G236R (antibody)
heavy: B2 heavy with S238Q, G239S
light: B1 light
notes: EU numbering; also called 2-33; 10.77; copies: 2 + 2
B9: anti-CD20 (rituximab) human IgG1 L234A/L235S/G236R (antibody)
heavy: not shown
light: B1 light
notes: EU numbering; also called 2-4; 1-14; copies: 2 + 2

Assays:
[1] = target: T2, human FcRn (R&D Systems Cat. No. 8639-Fc) (human, UniProt P55899 24-297; P61769 21-119); test: SPR, FcRn captured; Expt 2
[2] = target: T2, human FcRn (R&D Systems Cat. No. …); test: SPR, FcRn captured; Expt 1
[3] = target: T2, human FcRn (R&D Systems Cat. No. …); test: SPR, FcRn captured; Expt 3
[4] = target: T3, C-terminus biotinylated human FcRn attached to Streptavidin-SmBiT (FcRn-SAv-SmBiT) (human, UniProt P55899 24-297; P61769 21-119, limits assumed, C-terminus biotinylated (AviTag), attached to Streptavidin-SmBiT); test: NanoBiT FcRn competition immunoassay, competitor Tracer-LgBiT human IgG, pH 6.0
T3 construct: Kit reagent; also called hFcRn-AviTag

[5] = target: T4, Human C1q (Sigma Cat. No. 20476), HRP-labelled (human, UniProt P02745 23-245; P02746 28-253; P02747 29-245); test: ELISA, antibody coated, HRP-C1q; Expt 2, buffer alone 0.091
T4 construct: Coupled to horse-radish peroxidase with Lightning-Link kit; also called HRP-labelled C1q

[6] = target: T2, human FcRn (R&D Systems Cat. No. …); test: SPR, FcRn captured; Mean
[7] = target: T4, Human C1q (Sigma Cat. No. 20476), …; test: ELISA, antibody coated, HRP-C1q; Expt 3, buffer alone 0.102
[8] = target: T4, Human C1q (Sigma Cat. No. 20476), …; test: ELISA, antibody coated, HRP-C1q; Expt 1, buffer alone 0.061
[9] = target: T1, mouse FcRn (Sino Biological Cat. No. …); test: SPR, FcRn captured via anti-His, pH 6.0;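 also: SPR binding signal relative to the reference cell, corrected by subtracting the response of a blank sample of running buffer alone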
[10] = target: T2, human FcRn (R&D Systems Cat. No. …); test: SPR, FcRn captured via anti-His, pH 6.0;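 also: SPR binding signal relative to the reference cell, corrected by subtracting the response of a blank sample of running buffer alone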
[11] = target: T5, cynomolgus monkey FcRn (Sino Biological Cat. No. CT031-C08H) (cynomolgus monkey, UniProt Q8SPV9 24-297; Q8SPW0 21-119); test: SPR, FcRn captured via anti-His, pH 6.0;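 also: SPR binding signal relative to the reference cell, corrected by subtracting the response of a blank sample of running buffer alone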
T5 construct: Bought protein, captured on an anti-histidine chip; also called cynomolgus FcRn

Binder | Corrected and normalised response (% of wild-type reference) [1] | Corrected and normalised response (% of wild-type reference) [2] | Corrected and normalised response (% of wild-type reference) [3] | Mean binding activity (% of wild-type reference) [4] | Mean Absorbance [5] | Corrected and normalised response (% of wild-type reference) [6] | Mean Absorbance [7] | Mean Absorbance [8] | Corrected response (RU) [9] [RU] | Corrected response (RU) [10] [RU] | Corrected response (RU) [11] [RU]
B1 | 96.4 % of wild-type reference | 95.1 % of wild-type reference | 93.6 % of wild-type reference | 96.7 % of wild-type reference | 0.08 absorbance (450 nm) | 95.1 % of wild-type reference | 0.103 absorbance (450 nm) |  |  |  | 
B2 | 101 % of wild-type reference | 100 % of wild-type reference | 100 % of wild-type reference |  | 0.074 absorbance (450 nm) | 100 % of wild-type reference | 0.087 absorbance (450 nm) |  |  |  | 
B3 |  |  |  |  | 0.067 absorbance (450 nm) |  | 0.119 absorbance (450 nm) | 0.037 absorbance (450 nm) |  |  | 
B4 | 96.1 % of wild-type reference | 94.6 % of wild-type reference | 94.3 % of wild-type reference | 84.7 % of wild-type reference | 0.077 absorbance (450 nm) | 95 % of wild-type reference |  | 0.049 absorbance (450 nm) |  |  | 
B5 | 97.9 % of wild-type reference | 98.3 % of wild-type reference | 93.7 % of wild-type reference | 98.6 % of wild-type reference | 0.079 absorbance (450 nm) | 96.6 % of wild-type reference | 0.083 absorbance (450 nm) | 0.047 absorbance (450 nm) |  |  | 
B6 |  |  |  | 94.1 % of wild-type reference | 0.09 absorbance (450 nm) |  |  | 0.072 absorbance (450 nm) |  |  | 
B7 | 96 % of wild-type reference | 97.1 % of wild-type reference | 95.7 % of wild-type reference | 77.8 % of wild-type reference | 0.091 absorbance (450 nm) | 96.3 % of wild-type reference | 0.064 absorbance (450 nm) | 0.052 absorbance (450 nm) |  |  | 
B8 | 97.8 % of wild-type reference | 98.4 % of wild-type reference | 98.2 % of wild-type reference |  | 0.084 absorbance (450 nm) | 98.1 % of wild-type reference | 0.083 absorbance (450 nm) | 0.026 absorbance (450 nm) | 166 | 535 | 1230
B9 | 95.7 % of wild-type reference | 96.5 % of wild-type reference | 95.8 % of wild-type reference |  | 0.1 absorbance (450 nm) | 96 % of wild-type reference | 0.095 absorbance (450 nm) | 0.041 absorbance (450 nm) | 146 | 539 | 1260
